Source: patent US20250313625A1 (ELPISCIENCE SUZHOU BIOPHARMA, published 2025)
Where two headings read alike, the source gives them in different places. Values belong to the binder of their own block, whether it stands above or below them.

How the values were obtained:
[1] = molecular target: T1, hFc tagged human LAG3 ECD recombinant protein (human, UniProt P18627 23-450); assay: competitive ELISA format II: biotin hFc-LAG3 ECD binding to coated His-FGL1
T1 construct: range 23-450; also called biotin labelled hFc tagged human LAG3 ECD; not shown: human IgG Fc tag
T1 sequence (looked up): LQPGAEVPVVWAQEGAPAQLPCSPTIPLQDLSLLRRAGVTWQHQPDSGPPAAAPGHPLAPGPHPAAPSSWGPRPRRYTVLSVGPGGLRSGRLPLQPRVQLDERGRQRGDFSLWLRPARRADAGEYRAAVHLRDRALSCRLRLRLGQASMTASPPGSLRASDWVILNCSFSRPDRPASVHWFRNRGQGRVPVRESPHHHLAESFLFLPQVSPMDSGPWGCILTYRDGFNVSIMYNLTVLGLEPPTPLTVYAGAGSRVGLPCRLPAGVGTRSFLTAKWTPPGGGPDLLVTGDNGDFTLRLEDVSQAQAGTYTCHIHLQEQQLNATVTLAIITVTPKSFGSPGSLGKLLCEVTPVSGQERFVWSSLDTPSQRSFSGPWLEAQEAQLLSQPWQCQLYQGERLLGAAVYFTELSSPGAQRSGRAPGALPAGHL
Description: After washing, HRP labeled anti-His 2nd antibody (Sigma) was added and incubated at 37° C. for 1 hour. Then, 100 μl/well of TMB solution (Biotechnology) was added. After incubation for 15 minutes at room temperature, the reaction was stopped by the addition of 50 μl of 1N HCl. OD 450 nm was read. […] After washing, HRP labeled anti-SA 2nd antibody (Sigma) was added and incubated at 37° C. for 1 hour. Then, 100 μl/well of TMB solution (Biotechnology) was added. After incubation for 15 minutes at room temperature, the reaction was stopped by the addition of 50 μl of 1N HCl. OD 450 nm was read. […] The competition assay of format III is a competitive FACS assay. […] After washing, dye labeled anti-His 2nd antibody (Sigma) was added and incubated at 37° C. for 1 hour. Fluorescence intensity was detected.

[2] = molecular target: T2, LAG3 D1 domain extra loop peptide (biotin labelled (site not stated)); assay: ELISA format I: biotin labelled LAG3 D1 domain extra loop peptide on plate coated antibody; axis printed as Ab Conc. (nM)
T2 peptide: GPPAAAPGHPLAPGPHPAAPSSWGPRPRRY
Description: (§1) In ELISA binding assay of format I (FIG. 9A), biotin labelled LAG3 D1 domain extra loop peptide was incubated with ELISA microplate coated anti-LAG3 antibodies. After washing, HRP labeled anti-SA 2nd antibody (Sigma) was added and incubated at 37° C. for 1 hour. Then, 100 μl/well of TMB solution (Biotechnology) was added. After incubation for 15 minutes at room temperature, the reaction was stopped by the addition of 50 μl of 1N HCl. OD 450 nm was read. In ELISA binding assay of format II (FIG. 9B), biotin labelled LAG3 D1 domain extra loop peptide and anti-LAG3 antibodies were co-incubated in ELISA microplate coated with SA. After washing, HRP labeled anti-human Fc 2nd antibody (Sigma) was added and incubated at 37° C. for 1 hour. Then, 100 μl/well of TMB solution (Biotechnology) was added. After incubation for 15 minutes at room temperature, the reaction was stopped by the addition of 50 μl of 1N HCl. OD 450 nm was read.

[3] = molecular target: T3, mFc tagged human LAG3 ECD recombinant protein (human, UniProt P18627 23-450); assay: competitive ELISA: mFc tagged human LAG3 ECD binding to plate coated LSECtin ECD
T3 construct: extracellular domain; purchased from Biointron; not shown: mouse IgG Fc (mFc) tag
T3 sequence (looked up): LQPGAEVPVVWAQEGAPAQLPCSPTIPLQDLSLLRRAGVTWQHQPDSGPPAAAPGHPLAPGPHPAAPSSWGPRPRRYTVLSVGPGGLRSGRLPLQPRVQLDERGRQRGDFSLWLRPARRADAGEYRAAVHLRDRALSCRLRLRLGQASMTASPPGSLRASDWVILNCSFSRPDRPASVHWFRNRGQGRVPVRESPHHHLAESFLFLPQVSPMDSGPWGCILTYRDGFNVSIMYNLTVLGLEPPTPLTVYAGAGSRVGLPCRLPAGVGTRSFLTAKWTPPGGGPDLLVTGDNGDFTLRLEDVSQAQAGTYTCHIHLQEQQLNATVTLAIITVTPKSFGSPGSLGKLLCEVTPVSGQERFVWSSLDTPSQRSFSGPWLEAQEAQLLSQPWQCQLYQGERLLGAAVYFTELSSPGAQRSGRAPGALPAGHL
Description: Activity of the purified chimeric antibodies to block LAG3 and LSECtin interaction was determined by competitive ELISA assay. […] After washing, HRP labeled anti-mouse Fc 2nd antibody (Sigma) was added and incubated at 37° C. for 1 hour. Then, 100 μl/well of TMB solution (Biotechnology) was added. After incubation for 15 minutes at room temperature, the reaction was stopped by the addition of 50 μl of 1N HCl. OD 450 nm was read.

[4] = molecular target: T4, human LAG3, full length, stably expressed on cells (human, UniProt P18627 23-525); assay: FACS on 293F cells stably expressing human LAG3
T4 construct: whole, on cells; also called CHOK1-human LAG3
T4 sequence (looked up): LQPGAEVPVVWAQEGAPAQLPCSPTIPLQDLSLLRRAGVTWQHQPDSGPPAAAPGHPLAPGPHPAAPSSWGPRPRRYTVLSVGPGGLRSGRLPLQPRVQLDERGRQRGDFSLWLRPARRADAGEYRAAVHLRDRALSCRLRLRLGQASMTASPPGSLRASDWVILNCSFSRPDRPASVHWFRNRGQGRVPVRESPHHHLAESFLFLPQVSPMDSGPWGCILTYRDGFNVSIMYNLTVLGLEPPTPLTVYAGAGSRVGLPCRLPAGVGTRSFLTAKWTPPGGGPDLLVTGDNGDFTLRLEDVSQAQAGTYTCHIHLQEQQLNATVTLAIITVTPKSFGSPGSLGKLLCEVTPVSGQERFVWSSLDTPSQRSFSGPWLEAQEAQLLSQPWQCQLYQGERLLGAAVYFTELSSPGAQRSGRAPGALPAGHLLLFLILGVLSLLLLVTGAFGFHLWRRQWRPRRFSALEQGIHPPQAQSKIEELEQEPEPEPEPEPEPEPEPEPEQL
Description: Briefly the antibodies were incubated with 2×10⁵ target cells at 4° C. for 1 hour. After washing, fluorescence labeled anti-mouse IgG 2nd antibody (Life Technologies) was added and incubated at 4° C. for 1 hour. Geometric median fluorescence intensity (MFI) was detected and EC₅₀ was calculated using GraphPad Prism9.0.
(§2) MFI was detected and EC₅₀ was calculated using GraphPad Prism9.0.

[5] = molecular target: T3, mFc tagged human LAG3 ECD recombinant …; assay: competitive FACS: mFc-LAG3 ECD binding to Raji cells (MHC II)
Description: (§3) Activity of the purified chimeric antibodies to block LAG3 and MHC II interaction was determined by competitive FACS assay. […] After washing, dye labeled anti-mouse Fc 2nd antibody (Sigma) was added and incubated at 37° C. for 1 hour. Fluorescence intensity was detected.

[6] = molecular target: T3, mFc tagged human LAG3 ECD recombinant …; assay: competitive FACS: mFc tagged human LAG3 ECD binding to MHC II on Raji cells
Description: as §3

[7] = molecular target: T4, human LAG3, full length, stably …; assay: FACS on CHOK1 cells stably expressing human LAG3
Description: as §2

[8] = molecular target: T5, human LAG3 (form used in Octet, Biacore and HDX-MS not given) (human, UniProt P18627 23-450, limits assumed); assay: BLI (Octet), 1:1 fit
T5 sequence (looked up): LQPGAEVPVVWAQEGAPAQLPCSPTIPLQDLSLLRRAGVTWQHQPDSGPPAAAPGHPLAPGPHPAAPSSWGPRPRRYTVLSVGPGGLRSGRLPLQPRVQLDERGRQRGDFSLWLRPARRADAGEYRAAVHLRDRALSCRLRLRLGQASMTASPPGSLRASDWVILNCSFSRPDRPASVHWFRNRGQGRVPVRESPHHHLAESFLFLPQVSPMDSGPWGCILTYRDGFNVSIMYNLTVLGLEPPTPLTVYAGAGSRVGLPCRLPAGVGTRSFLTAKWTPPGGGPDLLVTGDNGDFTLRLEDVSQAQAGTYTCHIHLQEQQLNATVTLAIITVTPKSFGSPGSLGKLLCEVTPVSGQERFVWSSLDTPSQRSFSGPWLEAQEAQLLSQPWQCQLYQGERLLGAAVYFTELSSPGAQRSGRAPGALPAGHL
Description: The purified chimeric antibodies were characterized for binding affinity against human LAG3 using Bio-Layer Interferometry technology (Octet system). The association and dissociation curves were fit with 1:1 binding model, and the Ka/Kd/KD values for each antibody were calculated.

[9] = molecular target: T5, human LAG3 (form used in Octet, Biacore …); assay: BLI (Octet), 1:1 fit; remark: listed apart in the source
Description: (§4) The association and dissociation curves were fit with 1:1 binding model, and the Ka/Kd/KD values for each antibody were calculated.
as §4

[10] = molecular target: T2, LAG3 D1 domain extra loop peptide; assay: ELISA format II: biotin labelled LAG3 D1 domain extra loop peptide and antibody co-incubated on streptavidin coated plate, anti-human Fc detection
Description: as §1

IC50 [1]: 1.93 nM | TOP blocking (%) [1]: 82% | binding result [2]: no binding (tested: about 300 nM) | %Blocking at 4 nM [3]: 27.4% | %Blocking at 20 nM [3]: 91.4% | %Blocking at 100 nM [3]: 95.6% | EC50 [4]: 15.6 nM | IC50 [5]: 4.2 nM | TOP blocking (%) [5]: 99.9% | %Blocking at 2 nM [6]: 13.7% | %Blocking at 4 nM [6]: 20.1% | %Blocking at 8 nM [6]: 76.8% | EC50 [7]: 1.6 nM | TOP MFI [7]: 620 | Kd [8]: 6.52 nM | koff [8]: 0.000905 s⁻¹ | kon [8]: 139000 M⁻¹ s⁻¹ | Kd [9]: 5.34 nM | koff [9]: 0.00271 s⁻¹ | kon [9]: 508000 M⁻¹ s⁻¹
B1: 021c (antibody, human IgG4, V domains shown)
VH: DIQLQESGPGLVKPSQSLSLTCSVTGYSITSGYYWNWIRQFPGNKLEWMGDISYDGGNNYNPSLKNRISITRDTSKNQFFLKLNSVTTEDTATYYCARDITLTGAMDYWGQGTSVTVSS
VL: DIVLTQSPASLAVSLGQRATISCRASESVDNYGISFMHWYQQRPGQPPKLLIYRASNLESGIPARFSGSGSRTDFTLTINPVETDDVATYYCQQSNKDPYTFGGGTKLEIK
notes: human IgG4 S228P / kappa chimeric antibody; also called chimeric antibody 021; not shown: human kappa light chain constant region (pcDNA3.4-hIgGk vector)

EC50 (read off the curve) [2]: ~0.08 nM | EC50 (read off the curve) [10]: ~0.2 nM
B2: BMS-986016 (antibody, V domains shown)
VH: QVQLQQWGAGLLKPSETLSLTCAVYGGSFSDYYWNWIRQPPGKGLEWIGEINHRGSTNSNPSLKSRVTLSLDTSKNQFSLKLRSVTAADTAVYYCAFGYSDYEYNWFDPWGQGTLVTVSS
VL: EIVLTQSPATLSLSPGERATLSCRASQSISSYLAWYQQKPGQAPRLLIYDASNRATGIPARFSGSGSGTDFTLTISSLEPEDFAVYYCQQRSNWPLTFGQGTNLEIK
